We go through one variant from IntAct's records for PubMed 35115020.

Sequences and labels used below:
B1: Palmitoyltransferase ZDHHC5 (Homo sapiens), Q9C0B5 (parent)
chain: MPAESGKRFKPSKYVPVSAAAIFLVGATTLFFAFTCPGLSLYVSPAVPIYNAIMFLFVLANFSMATFMDPGIFPRAEEDEDKEDDFRAPLYKTVEIKGIQVRMKWCATCRFYRPPRCSHCSVCDNCVEEFDHHCPWVNNCIGRRNYRYFFLFLLSLTAHIMGVFGFGLLYVLYHIEELSGVRTAVTMAVMCVAGLFFIPVAGLTGFHVVLVARGRTTNEQVTGKFRGGVNPFTNGCCNNVSRVLCSSPAPRYLGRPKKEKTIVIRPPFLRPEVSDGQITVKIMDNGIQGELRRTKSKGSLEITESQSADAEPPPPPKPDLSRYTGLRTHLGLATNEDSSLLAKDSPPTPTMYKYRPGYSSSSTSAAMPHSSSAKLSRGDSLKEPTSIAESSRHPSYRSEPSLEPESFRSPTFGKSFHFDPLSSGSRSSSLKSAQGTGFELGQLQSIRSEGTTSTSYKSLANQTRNGSLSYDSLLTPSDSPDFESVQAGPEPDPPLGYTSPFLSARLAQQREAERHPRLVPTGPTHREPSPVRYDNLSRHIVASLQEREKLLRQSPPLPGREEEPGLGDSGIQSTPGSGHAPRTSSSSDDSKRSPLGKTPLGRPAVPRFGKPDGLRGRGVGSPEPGPTAPYLGRSMSYSSQKAQPGVSETEEVALQPLLTPKDEVQLKTTYSKSNGQPKSLGSASPGPGQPPLSSPTRGGVKKVSGVGGTTYEISV

Variants of B1 are the subject of the test. The settings on record: with spike_sars2 S.
Turning to C134S, the “effect of a mutation on the interaction” value is “with no effect”.
